Experimental data as given in patent US12383631B2, “Immune antigen specific IL-18 immunocytokines and uses thereof” (Bright Peak Therapeutics AG, priority 2022, dated 2025).

B1: C143: IL-18 polypeptide: V11I, C38A, K53A, C76A, C127A (protein)
chain: YFGKLESKLSIIRNLNDQVLFIDQGNRPLFEDMTDSDARDNAPRTIFIISMYADSQPRGMAVTISVKCEKISTLSAENKIISFKEMNPPDNIKDTKSDIIFFQRSVPGHDNKMQFESSSYEGYFLAAEKERDLFKLILKKEDELGDRSIMFTVQNED
B2: C155: IL-18 polypeptide: V11I, C38A, D40A, K53A, C76A, C127A (protein)
chain: YFGKLESKLSIIRNLNDQVLFIDQGNRPLFEDMTDSDARANAPRTIFIISMYADSQPRGMAVTISVKCEKISTLSAENKIISFKEMNPPDNIKDTKSDIIFFQRSVPGHDNKMQFESSSYEGYFLAAEKERDLFKLILKKEDELGDRSIMFTVQNED
B3: C161: IL-18 polypeptide: K8R, V11I, C38A, C76A, Q103E, C127A (protein)
chain: YFGKLESRLSIIRNLNDQVLFIDQGNRPLFEDMTDSDARDNAPRTIFIISMYKDSQPRGMAVTISVKCEKISTLSAENKIISFKEMNPPDNIKDTKSDIIFFERSVPGHDNKMQFESSSYEGYFLAAEKERDLFKLILKKEDELGDRSIMFTVQNED
B4: C159: IL-18 polypeptide: V11I, C38A, K53A, C76A, H109A, C127A (protein)
chain: YFGKLESKLSIIRNLNDQVLFIDQGNRPLFEDMTDSDARDNAPRTIFIISMYADSQPRGMAVTISVKCEKISTLSAENKIISFKEMNPPDNIKDTKSDIIFFQRSVPGADNKMQFESSSYEGYFLAAEKERDLFKLILKKEDELGDRSIMFTVQNED
B5: C156: IL-18 polypeptide: V11I, C38A, N41A, K53A, C76A, C127A (protein)
chain: YFGKLESKLSIIRNLNDQVLFIDQGNRPLFEDMTDSDARDAAPRTIFIISMYADSQPRGMAVTISVKCEKISTLSAENKIISFKEMNPPDNIKDTKSDIIFFQRSVPGHDNKMQFESSSYEGYFLAAEKERDLFKLILKKEDELGDRSIMFTVQNED
B6: C147: IL-18 polypeptide: V11I, C38A, K53A, D54A, C76A, C127A (protein)
chain: YFGKLESKLSIIRNLNDQVLFIDQGNRPLFEDMTDSDARDNAPRTIFIISMYAASQPRGMAVTISVKCEKISTLSAENKIISFKEMNPPDNIKDTKSDIIFFQRSVPGHDNKMQFESSSYEGYFLAAEKERDLFKLILKKEDELGDRSIMFTVQNED
B7: C148: IL-18 polypeptide: F2A, V11I, C38A, K53A, C76A, C127A (protein)
chain: YAGKLESKLSIIRNLNDQVLFIDQGNRPLFEDMTDSDARDNAPRTIFIISMYADSQPRGMAVTISVKCEKISTLSAENKIISFKEMNPPDNIKDTKSDIIFFQRSVPGHDNKMQFESSSYEGYFLAAEKERDLFKLILKKEDELGDRSIMFTVQNED
B8: C144: IL-18 polypeptide: V11I, C38A, K53A, T63A, C76A, C127A (protein)
chain: YFGKLESKLSIIRNLNDQVLFIDQGNRPLFEDMTDSDARDNAPRTIFIISMYADSQPRGMAVAISVKCEKISTLSAENKIISFKEMNPPDNIKDTKSDIIFFQRSVPGHDNKMQFESSSYEGYFLAAEKERDLFKLILKKEDELGDRSIMFTVQNED
B9: C150: IL-18 polypeptide: V11I, T34A, C38A, K53A, C76A, C127A (protein)
chain: YFGKLESKLSIIRNLNDQVLFIDQGNRPLFEDMADSDARDNAPRTIFIISMYADSQPRGMAVTISVKCEKISTLSAENKIISFKEMNPPDNIKDTKSDIIFFQRSVPGHDNKMQFESSSYEGYFLAAEKERDLFKLILKKEDELGDRSIMFTVQNED
B10: C154: IL-18 polypeptide: V11I, E31A, D37A, C38A, K53A, C76A, C127A (protein)
chain: YFGKLESKLSIIRNLNDQVLFIDQGNRPLFADMTDSAARDNAPRTIFIISMYADSQPRGMAVTISVKCEKISTLSAENKIISFKEMNPPDNIKDTKSDIIFFQRSVPGHDNKMQFESSSYEGYFLAAEKERDLFKLILKKEDELGDRSIMFTVQNED
B11: C149: IL-18 polypeptide: V11I, E31A, C38A, K53A, C76A, C127A (protein)
chain: YFGKLESKLSIIRNLNDQVLFIDQGNRPLFADMTDSDARDNAPRTIFIISMYADSQPRGMAVTISVKCEKISTLSAENKIISFKEMNPPDNIKDTKSDIIFFQRSVPGHDNKMQFESSSYEGYFLAAEKERDLFKLILKKEDELGDRSIMFTVQNED
B12: C160: IL-18 polypeptide: V11I, C38A, K53A, C76A, D110A, C127A (protein)
chain: YFGKLESKLSIIRNLNDQVLFIDQGNRPLFEDMTDSDARDNAPRTIFIISMYADSQPRGMAVTISVKCEKISTLSAENKIISFKEMNPPDNIKDTKSDIIFFQRSVPGHANKMQFESSSYEGYFLAAEKERDLFKLILKKEDELGDRSIMFTVQNED
B13: C158: IL-18 polypeptide: V11I, C38A, K53A, C76A, G108A, C127A (protein)
chain: YFGKLESKLSIIRNLNDQVLFIDQGNRPLFEDMTDSDARDNAPRTIFIISMYADSQPRGMAVTISVKCEKISTLSAENKIISFKEMNPPDNIKDTKSDIIFFQRSVPAHDNKMQFESSSYEGYFLAAEKERDLFKLILKKEDELGDRSIMFTVQNED
B14: C145: IL-18 polypeptide: V11I, C38A, K53A, S55A, C76A, C127A (protein)
chain: YFGKLESKLSIIRNLNDQVLFIDQGNRPLFEDMTDSDARDNAPRTIFIISMYADAQPRGMAVTISVKCEKISTLSAENKIISFKEMNPPDNIKDTKSDIIFFQRSVPGHDNKMQFESSSYEGYFLAAEKERDLFKLILKKEDELGDRSIMFTVQNED
B15: SEQ ID NO: 68: IL-18 polypeptide: V11I, C38A, M51G, K53A, C76A, C127A (protein)
chain: YFGKLESKLSIIRNLNDQVLFIDQGNRPLFEDMTDSDARDNAPRTIFIISGYADSQPRGMAVTISVKCEKISTLSAENKIISFKEMNPPDNIKDTKSDIIFFQRSVPGHDNKMQFESSSYEGYFLAAEKERDLFKLILKKEDELGDRSIMFTVQNED
B16: C151: IL-18 polypeptide: V11I, D35A, C38A, K53A, C76A, C127A (protein)
chain: YFGKLESKLSIIRNLNDQVLFIDQGNRPLFEDMTASDARDNAPRTIFIISMYADSQPRGMAVTISVKCEKISTLSAENKIISFKEMNPPDNIKDTKSDIIFFQRSVPGHDNKMQFESSSYEGYFLAAEKERDLFKLILKKEDELGDRSIMFTVQNED
B17: C153: IL-18 polypeptide: V11I, D37A, C38A, K53A, C76A, C127A (protein)
chain: YFGKLESKLSIIRNLNDQVLFIDQGNRPLFEDMTDSAARDNAPRTIFIISMYADSQPRGMAVTISVKCEKISTLSAENKIISFKEMNPPDNIKDTKSDIIFFQRSVPGHDNKMQFESSSYEGYFLAAEKERDLFKLILKKEDELGDRSIMFTVQNED
B18: C157: IL-18 polypeptide: V11I, C38A, K53A, C76A, C127A, D132A (protein)
chain: YFGKLESKLSIIRNLNDQVLFIDQGNRPLFEDMTDSDARDNAPRTIFIISMYADSQPRGMAVTISVKCEKISTLSAENKIISFKEMNPPDNIKDTKSDIIFFQRSVPGHDNKMQFESSSYEGYFLAAEKERALFKLILKKEDELGDRSIMFTVQNED
B19: C152: IL-18 polypeptide: V11I, S36A, C38A, K53A, C76A, C127A (protein)
chain: YFGKLESKLSIIRNLNDQVLFIDQGNRPLFEDMTDADARDNAPRTIFIISMYADSQPRGMAVTISVKCEKISTLSAENKIISFKEMNPPDNIKDTKSDIIFFQRSVPGHDNKMQFESSSYEGYFLAAEKERDLFKLILKKEDELGDRSIMFTVQNED

Biological target: T1, human IL-18 binding protein isoform a (IL-18BPa) (Homo sapiens, UniProt O95998)
T1 sequence (O95998 31-194): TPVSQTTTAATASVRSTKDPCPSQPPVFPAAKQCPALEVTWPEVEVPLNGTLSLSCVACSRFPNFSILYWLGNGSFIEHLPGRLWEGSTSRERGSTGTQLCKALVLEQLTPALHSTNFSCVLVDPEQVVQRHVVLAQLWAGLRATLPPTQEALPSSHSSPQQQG
Assay: IL-18 Binding Protein inhibition cellular assay in NK-92 cells (Example 4 / 17C)
Format: cell-based
Settings: inhibition by IL-18BP of IFNγ stimulation in NK92 cells
Experimental: The NK cell line NK-92 derived from a patient with lymphoma (ATCC® CRL-2407™) is cultured in aMEM medium supplemented with 20% FCS-Glutamax, 25 μM β-mercaptoethanol, and 100 IU/mL of recombinant human IL-2.
On the day of experiment, cells are harvested and washed with aMEM medium without IL-2 and containing 1 ng/mL of recombinant human IL-12. After counting, the cells are seeded at 100,000 cells/well in a 384 well titer plate and incubated at 37° C./5% CO2. Sixteen 2-fold serial dilutions of Fc-fused human IL-18 binding protein isoform a (IL-18BPa) are prepared in aMEM medium. 1 ng/mL of IL-12 containing 2 nM of each modified IL-18 polypeptide variant is added to the NK-92 cells. The final IL-18 analyte concentration is 1 nM, and the final IL-18BPa concentration ranged from 566 nM to 17 pM.
After incubating the cells for 16-20 hr at 37° C./5% CO2, 5 μL of the supernatant is carefully transferred to a 384 microwell OptiPlate. IFNγ levels are measured using a human IFNγ AlphaLISA Assay Kit. Briefly, 10 μL of 2.5× AlphaLISA anti-IFNγ acceptor beads and biotinylated antibody anti-IFNγ mix are added to 5 μL of NK-92 supernatants. The mixtures are incubated for 1 hr at room temperature with shaking. Under subdued light, 2.5 μL of 2×SA donor beads are pipetted in each well and incubated for 30 min at room temperature with shaking. AlphaLISA signals are then measured on an EnSpire™ plate reader using 680 nm and 615 nm as excitation and emission wavelengths, respectively. Half maximal inhibitory concentrations (IC50) are calculated based on a variable slope and four parameter analysis using GraphPad PRISM software.
17C—IFNγ Stimulation and IL-18BP Inhibition Assay—The experiments described in Example 4 for determination of IFNg stimulation in NK92 cells (and inhibition by IL-18 BP) were performed substantially as described on modified IL-18 polypeptides in order to assess their activities and their suitability for incorporation into immunocytokine compositions.

How did the IC50 turn out when B1 was run?
Its IC50 is 1.62 nM.

B2 was tested. Which IC50 did it give?
Its IC50 is 3.23 nM.

Which IC50 does the source give for B3 here?
Its IC50 is 1.07 nM.

With B4 as the molecule, how does the IC50 read?
The IC50 was 1.81 nM.

How did the IC50 turn out when B5 was run?
Its IC50 is 0.681 nM.

How did the IC50 turn out when B6 was run?
Its IC50 is 47.6 nM.

Which IC50 does the source give for B7 here?
The IC50 was 5.05 nM.

For B8, which IC50 is on record?
The IC50 was 7.52 nM.

With B9 as the molecule, how does the IC50 read?
Its IC50 is 21.3 nM.

For B10, which IC50 is on record?
The IC50 was 3.71 nM.

With B11 as the molecule, how does the IC50 read?
Its IC50 is 1.17 nM.

B12 was tested. Which IC50 did it give?
Its IC50 is 3.18 nM.

With B13 as the molecule, how does the IC50 read?
Its IC50 is 3.98 nM.

For B14, which IC50 is on record?
Its IC50 is 10.2 nM.

With B15 as the molecule, how does the IC50 read?
The IC50 was 733 nM.

B16 was tested. Which IC50 did it give?
The IC50 was 3.62 nM.

With B17 as the molecule, how does the IC50 read?
The IC50 was 2.22 nM.

How did the IC50 turn out when B18 was run?
Its IC50 is 6.08 nM.

How did the IC50 turn out when B19 was run?
Its IC50 is 7.85 nM.
